Where two headings read alike, the source gives them in different places. Where no end group is shown, it is not given here. [ ]: non-standard residue; d: D form. biotin (long spacer arm) = biotin with long spacer arm, attached via N-hydroxysuccinimidyl ester of biotin; Nle = CCCC[C@H](N)C(=O)O
Assays:
[1] = molecular target: T1, N-terminal APC coiled coil (APC-55) (Homo sapiens, UniProt P25054); experiment: Thermal denaturation followed by circular dichroism at 222 nm (apparent Tm); assay type: physicochemical; settings: for Apparent Tm: 10 mM phosphate pH 7.0 and 100 mM potassium flouride, midpoint of CD thermal denaturation at 222 nm
T1 construct: APC-55, a peptide corresponding to amino acids 2-55 of human APC; made in house; host or cells: E. coli BL21 (DE3), pAED4 plasmid
T1 sequence (P25054 2-55): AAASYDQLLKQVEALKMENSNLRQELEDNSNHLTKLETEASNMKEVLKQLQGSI
Protocol: Circular dischroism investigations are well known in the art. For example, such an investigation may be performed using a 1 cm or 1 mm cuvette (Helma or Uvonic) on an Aviv CD spectrophotometer (model 60DS or model 62DS) equipped with a thermoelectric controller. The buffer used for all CD experiments except pH titrations is 100 mM KF, 10 mM potassium phosphate (pH 7.0). All peptide concentrations may be determined by tyrosine absorbance at 275.5 nm in 6.0 M GuHCl PH 6.5 (Schwarz/Mann Biotech Ultra-Pure grade) using an Aviv UV/VIS spectrophotometer (model 1 BDS or 14 DS). The molar ellipticity at 222 nm, 5° C., is measured for the homo- and heterodimers. The CD values (i.e., deg cm^2 and dmol^-1) indicate % helicity of the peptides. Thermal melting curves are determined by monitoring the CD signal at 222 nm as a function of temperature. The pH dependence of stability may be measured in 100 mM KF, 10 mM potassium phosphate at various pH values. GuHCl (Schwarz/Mann Biotech Ultra-Pure grade) (e.g., 2M) may be included in the buffer used for monitoring the pH dependence of stability. pH stability is indicated if the same overall shape of the pH dependence curve is obtained in the absence as well as the presence of GuHCl. It is also desirable to determine the reversibility for all thermal melts. The absence of reversibility of a melting curve above a certain pH value indicates chemical modification and/or degradation of the polypeptide. Such modification and/or degradation may be confirmed using HPLC.
Thermal denaturation is used to determine Tm. The term "Tm " refers to the temperature at which the fraction of a polypeptide which is unfolded is equal to the fraction folded (ΔG=0). The Tm is determined by curve fitting a thermal denaturation curve (described supra) to an equation known in the art (see, O'Shea et al (1992) Cell 68:699-708) using a nonlinear least squares-fitting program (e.g., Kaledagraph, Synergy Software). Alternatively, the Tm for each polypeptide may also be determined by taking the first derivative of the CD signal (β) with respect to temperature^-1 (temperature in K) and finding the minimum of this function (Cantor and Schimmel, 1980). Similarly, denaturation induced by additives such as urea or GuHCl can be followed by circular dichroism. These measurements can yield the Cm, i.e., the denaturant concentration where ΔG=0. Linear extrapolation of the transition to zero denaturant can yield the equilibrium constant in aqueous buffer. This can be converted to a free energy of association using the formula ΔG=--RTlnK [Cantor and Schimmel (1980) supra).
CD spectra (180-300 nm) for the APC-55 and anti-APCp1 peptides alone and in combination were recorded in a 1 mm quartz cuvette at 5° C. using an Aviv 62DS circular dichroism spectrophotometer. The concentrations of peptide stocks were determined optically by the method of Gill and vonHippel, Anal. Biochem 182:319-326 (1989). Peptide stocks were diluted in 10 mM KPO4, 100 mM KF, pH 7.0. Thermal denaturations were carried out in steps of 1-3° C. with 2 minutes for equilibration and one minute for data averaging. Thermal transitions were >95% reversible. The results in FIGS. 3 and 4 obtained with the APC-55 alone are shown by open circles (.largecircle.), with the anti-APCp1 alone by squares (.quadrature.), and with an equimolar mixture of APC-55 and anti-APCp1 with closed circles (.circle-solid.).

APC-55 = molecular target: T2, APC-55 (Homo sapiens, UniProt P25054); experiment: Fluorescence energy transfer titration (dissociation constant of heterodimer); assay type: binding
T2 construct: APC-55, a peptide corresponding to amino acids 2-55 of human APC; made in house; host or cells: E. coli BL21 (DE3), pAED4 plasmid
T2 sequence (P25054 2-55): T1 sequence (P25054 2-55)
Protocol: Based on the sensitivity of the fluorescence method used, the dissociation constant of the APC-55/Anti-APCp2 heterodimer was estimated to be less than 10 nM. […] Because the amino-terminal, coiled coil sequence targeted by anti-APCp1 occurs in tumor-associated truncation mutants, the distinct electrophoretic mobilities of the species detected by the antisense peptide distinguish wild-type from tumorigenic APC variants (FIG. 9).

coumarin-labeled APC-55 = molecular target: T3, coumarin-labeled APC-55 (human, coumarin label (site not stated)); experiment: fluorescence energy transfer measurements
T3 peptide: T1 sequence (P25054 2-55)

[2] = molecular target: T4, APC-55, a peptide corresponding to amino acids 2-55 of human APC (human); experiment: fluorescence energy transfer titration
T4 peptide: T1 sequence (P25054 2-55)

[3] = molecular target: T4, APC-55, a peptide corresponding to …; experiment: thermal denaturation by CD, equimolar mixture, 8.0 µM
[4] = molecular target: T4, APC-55, a peptide corresponding to …; experiment: thermal denaturation by CD, equimolar mixture, 20.0 µM
[5] = molecular target: T4, APC-55, a peptide corresponding to …; experiment: thermal denaturation by CD, equimolar mixture, 75.0 µM
[6] = molecular target: T4, APC-55, a peptide corresponding to …; experiment: thermal stability at 20 µM peptide in PBS (pH 7.0), mixture
[7] = thermal denaturation by CD, peptide alone, 8.0 µM
[8] = thermal denaturation by CD, peptide alone, 20.0 µM
[9] = thermal denaturation by CD, peptide alone, 75.0 µM
[10] = thermal stability at 20 µM peptide in PBS (pH 7.0), peptide alone
[11] = thermal denaturation by CD at 222 nm, peptide alone (homo-oligomer), 8.0 µM
[12] = thermal denaturation by CD at 222 nm, peptide alone (homo-oligomer), 20.0 µM
[13] = thermal denaturation by CD at 222 nm, peptide alone (homo-oligomer), 75.0 µM
[14] = molecular target: GST-APC-H1 (GST fused to the first 55 amino acids of the human APC protein, heptad repeat 1) (human, UniProt P08515 = GST); experiment: Western blot of bacterial lysates, 5 nM biotinylated peptide, streptavidin-HRP
Protocol: (§1) Bacterial lysates containing GST, GST-APC-H1, GST-APC-H1-4 and GST-APC-probe were diluted 1:10 in cell lysates from induced BL21 cells containing no APC sequences and adjusted to a final protein concentration of 0.5 mg/ml in sample buffer. Five micrograms of each sample was electrophoresed on a precast 10% Tricine-SDS polyacrylamide gel (Novex) as described by Schager and von-Jagow (1987). Proteins were transferred to 0.45 micron nitrocellulose for 2 hours at 100 V, 4° C., in transfer buffer (25 mM Tris, 192 mM glycine, 20% methanol, 0.1% SDS).
(§2) The anti-APCp1 peptide was biotinylated by removing the F-moc protecting group from the N-terminus of the peptide on the synthesis resin and incubating the resin with the N-hydroxy-succinimidyl ester of biotin containing a long spacer arm (Pierce, Catalog #21336) in dimethylformamide. The biotinylated anti-APCp1 contains Met (instead of Nrl) as well as an additional Leu8Val mutation and Glu-Asp-Glu (wild-type APC sequence) at the peptide C-terminus. This probe was indistinguishable from anti-APCp1 in native gel experiments and CD experiments (data not shown). Blots were blocked for 1 hour in PNT buffer (10 mM phosphate, pH 8.0, 175 mM NaCl, 0.1% Tween-20) containing 0.5% bovine serum albumin. After blocking, blots were probed for I hour at 42° C. with 5 nM biotinylated antiAPC peptide in PNT buffer containing 1% BSA. […]

[15] = molecular target: GST-APC-H1-4 (GST fused to the N-terminal 373 amino acids of the APC protein, heptad repeats 1-4) (human, UniProt P08515 = GST); experiment: as above
Protocol: as §1, §2

## APC-55: peptide corresponding to amino acids 2-55 of human APC; target coiled coil; MAAASYDQLLKQVEALKMENSNLRQELEDNSNHLTKLETEASNMKEVLKQLQGSI
[1]; 8.0 μM peptide (Table 9)
  Apparent Tm (+/- 1.25° C.): 36.3 °C
[1]; 8.0 μM peptide
  Apparent Tm: 36.3 °C
[1]; 20.0 μM peptide (Table 9)
  Apparent Tm (+/- 1.25° C.): 40.0 °C
[1]; 20 μM peptide concentration in PBS (pH 7.0)
  Tm (thermal stability): 40.0 °C
[1]; 20.0 μM peptide
  Apparent Tm: 40.0 °C
[1]; 75.0 μM peptide (Table 9)
  Apparent Tm (+/- 1.25° C.): 46.5 °C
[1]; 75.0 μM peptide
  Apparent Tm: 46.5 °C

## [Nle]AAKGDQLKKEVEALEYENSNLRKKLEDHKKKLTKLKTEISNAKK[Nle]LKQLYASI [anti-APCp2]
APC-55; estimated from the sensitivity of the fluorescence method, read-out: dissociation constant of the APC-55/Anti-APCp2 heterodimer
  Kd: < 10 nM

## MAAKGDQLKKEVEALEYENSNLRKKLEDHKKKLTKLKTEISNAKKMLKQLYASI [anti-APCp1]
APC-55; fluorescein- and coumarin-labeled anti-APCp1 and APC-55, data not shown, read-out: Kd of the heterodimer (upper limit)
  Kd: ≤ 10 nM

B1: fluorescein-labeled anti-APCp1 (designed binder)
peptide: MAAKGDQLKKEVEALEYENSNLRKKLEDHKKKLTKLKTEISNAKKMLKQLYASI
modifications: also: fluorescein label (site not given here)
coumarin-labeled APC-55
  Kd: ≤ 10 nM

B2: anti-APCp2 polypeptide probe (designed binder)
peptide: [Nle]AAKGDQLKKEVEALEYENSNLRKKLEDHKKKLTKLKTEISNAKK[Nle]LKQLYASI
[2]
  Kd: < 10 nM
[3]
  Apparent Tm: 52.9 ° C.
[4]
  Apparent Tm: 57.5 ° C.
[5]
  Apparent Tm: 63.6 ° C.
[6]
  Tm: 57.5 ° C.

B3: APC-55, a peptide corresponding to amino acids 2-55 of human APC (protein)
chain: T1 sequence (P25054 2-55)
[7]
  Apparent Tm: 36.3 ° C.
[8]
  Apparent Tm: 40 ° C.
[9]
  Apparent Tm: 46.5 ° C.
[10]
  Tm: 40 ° C.
[11]
  Apparent Tm: 36.3 ° C.
[12]
  Apparent Tm: 40 ° C.
[13]
  Apparent Tm: 46.5 ° C.

B4: biotinylated anti-APCp1 (contains Met instead of Nrl, an additional Leu8Val mutation and Glu-Asp-Glu at the peptide C-terminus) (designed binder)
peptide: {biotin (long spacer arm)}-MAAKGDQVKKEVEALEYENSNLRKKLEDHKKKLTKLKTEISNAKKMLKQLYASIEDE
[14]
  binding result: binds
[15]
  binding result: binds
